Laboratory results from the supplement of paper PMC9170038.

Each sequence was assayed on MS2 coat protein (assay: apparent KD of MS2 coat protein; higher = weaker reporter binding). Conditions: Eterna round: R107; input ligand: none.
Summary of the method: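 Designed RNA switches were transcribed on-chip from Illumina sequencing clusters. SNAP-549-labelled MS2 coat protein was titrated onto them in twofold steps from 0.7 or 1.5 nM to 3 µM in 100 mM Tris-HCl pH 7.5, 80 mM KCl, 4 mM MgCl2, either without or with constant ligand. Apparent KD reflects the per-design median of normalised cluster binding-curve fits.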

Sequence	apparent KD of MS2 coat protein
UCGUAGGUAGGAAGGAGCGCAUACUUCACAUGAGGAUCACCCAUGUCGAGACGUGAGUCAGUGCAGGUAGGUCGCCUAGCUAUGA [Same State - Arginine B (Freestyle 25)]	26 nM
AGCGAUUUCGGAAGGAGCGGUACAUGAGGAUCACCCAUGUAUUCAAUCGUGAUCGGCGCGUGCCAGGUAGGUCGCCGAAGGCGUC [Veatat]	9.95 nM
UGUAUGUGAUCUGAUACCAGUCCAACUGGUAAAAUCUGAGGAUCACCCAGGUAAAAUUGGGACCCUUGGCAGCAGAUCGCAUACU	175 nM
GGUACAUGAGGAUCACCCAUGUGUCAUGAUACCAGACAUGAAAAUGUCCCUUGGCAGCAUGCCUGAUGGCCGCGUUUAGCGGCCG [Liskovec]	15.7 nM
UGUACCAUGUCGGCCGCCACUCAUGAUAAACCUGAGGAUCACCCUGGUAGCGUCAAAGACGCUAUGAGGACCGGGACAUGGUACU [TryBS Zipper 2]	24.4 nM
GGAUAGGACAGAAGGAGCGACAUGAGGAUCACCCAUGUCUACUACGUCGAAAGACGCUCAUGUCAGGUAGGUCGCUGUCCUAUCG [#28 Exclusion - Arginine B]	241 nM
CACGCGGUGUCGGCCGCCACUGACGCCCGUGGGUCUCCUGACAUGAGGAUCACCCAUGUACAGCGCAGGACCGGGACACCAACAA [Are]	49.4 nM
AUUAAAGUUUAUAAGGAAAUUGAAACAGAAGGAGCGUGAGUAAUCACAGGUAGGUCGCUGGUAGUACAUGAGGAUCACCCAUGUU [JR_Nu_SSArginiA_Sub020]	20.1 nM
AUAACUGUAAUAAACCGCAGGCUAGUGGAAGGAGCGCGGAAUAACGCAGGUAGGUCGCCACAAACAUGAGGAUCACCCAUGUGGC [SSAA NP+V+V2 #6]	16 nM
ACUGGAGGUGGAAGGAGCGGGAGACAUGAGCAUCACAUGAGGAUCACCCAUGUAGGAUCAUCCCAGGUAGGUCGCCAUGUCGAAA [rtfemullin]	276 nM
UCGUAGGUAGGAAGGAGCGCAUACUUCACAUGAGGAUCACCCAUGUCGAGACGUGAGUCAGUGCAGGUAGGUCGCCUAGUUAUGA [Same State - Arginine B (Freestyle 24)]	41.1 nM
AAAAGAGGUGGAAGGAGCGGGAGACAUGAGGAUCACCCAUGUGAUAUGACAAGAGGAUCAGCCCAGGUAGGUCGCCAUGUCGAAA [pbbbmullin]	71.1 nM
UGACAUUGCUCAGAUACCAGACGUGAGGAUCACCCACGUGCCAACAAGUACAUAAUAAAUGUCCCUUGGCAGCUGAGCAAUGUCU [TheoBX 17 #MS2Left #Theo2 #AlternativeMS2]	11.2 nM
GGUCUCUGGAGCGAUACCAGCUUGAUCGUACUAGCCAGGUACAUGAGGAUCACCCAUGUAAGCCCUUGGCAGCGCUCCAGAGACC [#1 Exclusion - Theophylline B Attempt #9 (HarryS)]	9.25 nM
GUACAUGAGGAUCACCCAUGUAUAGUUGAAGGAGCGACCAGAGGGUCAGGUAGGUCGCAGCACAUGGUGAAAACCCGUGUAUGCC [#1 Exclusion - Arginine A Attempt #21 (Inspired by Pi)]	33.4 nM
UGUCGAAACUGAAGGAGCGAGAUGACAAACAUGAGGAUCACCCAUGUUAUGGGUUGUUAAUCUCAGGUAGGUCGCAGUGACAAAA [Same State Arginine B GF 16]	106 nM
UUAACGAGCUGAAGGAGCGCUCUUCAUCAACAUGAGGAUCACCCAUGUACACAUAAUAGGGAGCAGGUAGGUCGCAGCGGGAUGG [#24 Same State - Arginine B]	16.2 nM
GGAUAGGACACGGCCGCCACUAUCUAGGAUACUAGCAACAUUUGGGUACUUGAGGAUCACCCAAGUAGGACCGGGUGUCCUAUCG	170 nM
CUCCCUUCGGCGGCCGCCACUAACAGUUUAAUGGACUUUCGGGUCCACAUGAGGAUCACCCAUGUUAGGACCGGGCCCUUGCUCU [theeternabot_exclusion_MS2_Trp_B_39]	9.2 nM
AAGUGGCACGGAAGGAGCGAGUUUACCUAAAUAACAUGAGGAUCACCCAUGUAUAAUGGGACUCAGGUAGGUCGCCGUUGUCACU [Same State Arginine B GF 23]	29.3 nM

Same assay, conditions: Eterna round: R107; input ligand: theophylline 20 uM

Sequence	apparent KD of MS2 coat protein
AGCACUGUGACGGCCGCCACUACAUAAUAGGGUGGUCAGGUUCAUAUACAUGAGGAUCACCCAUGUAGGACCGGGUCUCAGUGCA [Omei Trp Exc B A v6]	12.7 nM
AAAACACAUGAGGAUCACCCAUGUCGUGAUACCAGUCAACAUGAGGACCCUUGGCAGCAUAAAAUGGGUAACAUGAGGAUCACCC [AstrosEXyTheA#5]	118 nM
UCGUAGGUAGGAAGGAGCGCAUACUUCACAUGAGGAUCACCCAUGUCGAGACGUGAGUCAGUGCAGGUAGGUCGCCUAGCUAUGA [Same State - Arginine B (Freestyle 25)]	35.7 nM
AACAGGGCUUCCACGAAGCCCUAAGGUGAUACCAGCACAUGUAAGUGCCCUUGGCAGCACGGUACAUGAGGAUCACCCAUGUAGA [Gerara]	237 nM
AGCGAUUUCGGAAGGAGCGGUACAUGAGGAUCACCCAUGUAUUCAAUCGUGAUCGGCGCGUGCCAGGUAGGUCGCCGAAGGCGUC [Veatat]	14.9 nM
UGUAUGUGAUCUGAUACCAGUCCAACUGGUAAAAUCUGAGGAUCACCCAGGUAAAAUUGGGACCCUUGGCAGCAGAUCGCAUACU	423 nM
GGUACAUGAGGAUCACCCAUGUGUCAUGAUACCAGACAUGAAAAUGUCCCUUGGCAGCAUGCCUGAUGGCCGCGUUUAGCGGCCG [Liskovec]	19.5 nM
ACAUGAGGAUCACCCAUGUCAUGAGGUUCACGAGGACCGGUACGGCCGCCACUCGACAUGAGGGUCACCCGUGAACGGAACACCC [kpmullin]	23.6 nM
CCUCGACAUGAGGAUCACCCAUGUAGAGAUACCAGCCUGUGAGAUGGCCCUUGGCAGCUCAUAUAGGGUACAGGAGUCGUUUUGA [Qugetila]	63.2 nM
UAAACUACACAUGAGGAUCACCCAUGUGGCCGAGGACCGGUACGGCCGCCACUCGUGUGUUAAUAAAAGAACCGCAAAGUUCUGU [Ticerear]	401 nM
UGUAUGUGAUCUGAUACCAGUCCCUUGGCAGCAACAUGAGGAUCACCCAUGUAGAUACCAGACCCUUGGCAGCAGAUCGCAUACU [#DoubleAptamer 1]	9.15 nM
UGUACCAUGUCGGCCGCCACUCAUGAUAAACCUGAGGAUCACCCUGGUAGCGUCAAAGACGCUAUGAGGACCGGGACAUGGUACU [TryBS Zipper 2]	35.2 nM
AAUCUGUCGGGUGAUACCAGCCUCGGCGCAUCUCACGCUGAACAUGAGGAUCACCCAUGUGGCCCUUGGCAGCACAUGACAAAUC [Tivece]	709 nM
AAACAUUGCUCAGAUACCAGACAUGAGGAUCACCCAUGUACCAAGGUAAAGAAAUAACGUGUCCCUUGGCAGCUGAGCAAUGAAA [MAT - Exclusion Theophlline B - Mod of Eli - D10]	12.8 nM
GGAUAGGACAGAAGGAGCGACAUGAGGAUCACCCAUGUCUACUACGUCGAAAGACGCUCAUGUCAGGUAGGUCGCUGUCCUAUCG [#28 Exclusion - Arginine B]	263 nM
AACAUACAGUUUUAGGUGGAUAUAAGGCGGCGAGGACCGGUACGGCCGCCACUCGCGUACAUGAGGAUCACCCAUGUCUGAAGCU [Same State - Tryptophan A (Freestyle 7)]	59.2 nM
CACGCGGUGUCGGCCGCCACUGACGCCCGUGGGUCUCCUGACAUGAGGAUCACCCAUGUACAGCGCAGGACCGGGACACCAACAA [Are]	59 nM
AUGCAGAACACGGCCGCCACUCAUUGUAGACAUGAGGAUCACCCAUGUAAUAGGGAUAUUUUAUUGAGGACCGGGUGUAAUGCAA [JR_SSTryptoB_Sub013]	77.6 nM
CGAGUGAGUUCAAUCGAAUAACGGUUUUCGCGAGGACCGGUACGGCCGCCACUCGUGUGAUAUCACACAUGAGGAUCACCCAUGU [3'end-1]	49 nM
